From paper PMC10996581 (The Journal of Cell Biology, 2024) come the findings set out here.

Where no end group is shown, it is not given here.

Experiment [1] has as its target T1, IRE1αLDΔ308–357 mutant (human, UniProt O75460 24-443, Δ308–357).
T1 sequence: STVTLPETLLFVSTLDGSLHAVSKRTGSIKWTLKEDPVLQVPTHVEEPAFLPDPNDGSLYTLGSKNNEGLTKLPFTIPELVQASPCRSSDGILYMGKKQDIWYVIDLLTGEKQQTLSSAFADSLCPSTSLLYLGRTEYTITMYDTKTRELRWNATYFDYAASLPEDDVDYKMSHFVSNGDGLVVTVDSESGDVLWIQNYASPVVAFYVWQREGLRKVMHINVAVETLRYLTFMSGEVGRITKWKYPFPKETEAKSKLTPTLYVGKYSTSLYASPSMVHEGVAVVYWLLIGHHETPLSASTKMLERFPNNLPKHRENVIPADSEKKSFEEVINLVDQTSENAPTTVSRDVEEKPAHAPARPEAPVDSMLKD
The experiment can be described thus: […].

The target of experiment [2] is T1, IRE1αLDΔ308–357 mutant. The experiment can be described thus: MST.

With IYGWYRVHFGVLDEQLHR (also: 5-FAM labelled, position not given here) [CTxA_(I124-R141) peptide, 5-FAM labelled], the binding result with IRE1αLDΔ308–357 mutant [1] was “binds”.

B1: His6-CTxA1 (enzymatic A1 chain of the cholera toxin A subunit) (domain or fragment)
chain: NDDKLYRADSRPPDEIKQSGGLMPRGQSEYFDRGTQMNINLYDHARGTQTGFVRHDDGYVSTSISLRSAHLVGQTILSGHSTYYIYVIATAPNMFNVNDVLGAYSPHPDEQEVSALGGIPYSQIYGWYRVHFGVLDEQLHRNRGYRDRYYSNLDIAPAADGYGLAGFPPEHRAWREEPWIHHAPPGCGNAPRSS
As to B1, the binding result with IRE1αLDΔ308–357 mutant [2] is “binds”.
